Reference: patent US20250297030A1 (SHANDONG SIMCERE BIOPHARMACEUTICAL, published 2025)
Read-outs that look alike come from different tables or passages of the source.

T1: Cyno MUC17 ECD3577-his (His-tagged cynomolgus monkey MUC17 protein extracellular domain fusion protein) (cynomolgus monkey)
T1 construct: also called monkey MUC17-his protein; monkey MUC17 ECD3577-His
T1 chain: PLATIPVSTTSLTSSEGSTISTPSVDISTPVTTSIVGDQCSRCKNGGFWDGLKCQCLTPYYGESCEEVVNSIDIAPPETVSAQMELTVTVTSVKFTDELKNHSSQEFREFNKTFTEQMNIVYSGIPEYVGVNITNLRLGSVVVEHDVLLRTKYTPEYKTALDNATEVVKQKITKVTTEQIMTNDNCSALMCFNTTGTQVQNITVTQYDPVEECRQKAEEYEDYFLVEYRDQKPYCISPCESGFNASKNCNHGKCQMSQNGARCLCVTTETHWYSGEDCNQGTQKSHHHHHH

T2: monkey MUC17 fragment on FlpinCHO-Cyno(3597-3964)-D2 cells (monkey)
T2 chain: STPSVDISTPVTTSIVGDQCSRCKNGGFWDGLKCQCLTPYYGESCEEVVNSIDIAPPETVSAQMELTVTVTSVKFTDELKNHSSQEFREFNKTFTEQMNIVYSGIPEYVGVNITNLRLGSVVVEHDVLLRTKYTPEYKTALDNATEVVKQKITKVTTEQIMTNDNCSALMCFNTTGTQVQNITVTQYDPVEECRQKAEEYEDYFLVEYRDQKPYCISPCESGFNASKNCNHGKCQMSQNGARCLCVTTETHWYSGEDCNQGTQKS


Legend:
[1] = target: T1, Cyno MUC17 ECD3577-his (His-tagged …); experiment: phage ELISA and FACS screening
[2] = target: T1, Cyno MUC17 ECD3577-his (His-tagged …); experiment: ELISA on coated monkey MUC17 ECD3577-His, OD450
Experimental: (§1) A human MUC17-his protein was diluted with PBS to a final concentration of […] and then added to a 96-well ELISA plate at 50 µL/well. The plate was incubated at 4° C. overnight. The next day, the plate was washed 2 times with PBST, and a blocking buffer [PBS+2% (w/w) BSA] was added for blocking at room temperature for 2 h. The blocking buffer was discarded, and the recombinant antibody and positive and negative control antibody with a starting concentration of 100 nM serially diluted by 3 folds were added at 50 μL/well. After incubation at 37° C. for 1 h, the plate was washed 3 times with PBST. A horseradish peroxidase (HRP)-labeled secondary antibody (purchased from Merck, Cat. No. AP113P) was added for incubation at 37° C. for 1 h, and the plate was washed 5 times with PBST. A TMB substrate was added at 50 μL/well for incubation at room temperature for 10 min, and then a stop solution (1.0 M HCl) was added at 50 µL/well. The OD₄₅₀ nm values were read by an ELISA plate reader (Multimode Plate Reader, EnSight, purchased from Perkin Elmer).
(§2) The monkey MUC17-his protein was subjected to ELISA and data analysis according to the method described in Example 3.2. The recombinant antibodies Lab315-huFc, Lab316-huFc, Lab320-huFc, Lab331-huFc, and Lab332-huFc have a relatively good binding activity with the monkey MUC17-his protein.

[3] = target: T3, human MUC17 on NUGC4 endogenous tumor cells (human, UniProt Q685J3 26-4493); experiment: FACS on NUGC4 cells, MFI
Experimental: (§3) Then a complete medium was added to stop the digestion, and the cells were blown into a single cell suspension. After counting, the cells were centrifuged, and the cell pellet was resuspended to 2×10⁶ cells/mL in an FACS buffer (PBS+2% fetal bovine serum), and added to a 96-well FACS reaction plate at 100 µL/well. The plate was centrifuged, and the supernatant was discarded. An antibody sample to be tested (diluted in a 3-fold gradient from a starting concentration of 100 nM) was added at 50 µL/well and uniformly mixed with the cells, and the mixture was incubated at 4° C. for 1 h. […] The results were tested and analyzed by FACS (FACS Canto™, purchased from BD) after the plate was centrifuged and washed 3 times with a PBS buffer and resuspended with 100 μL of PBS. Data analysis was performed by software (FlowJo) to obtain the mean fluorescence intensity (MFI) of the cells. Then, analysis was performed by software (GraphPad Prism8), data were fitted, and EC50 values were calculated. As shown in FIGS. 3A-3B, the recombinant antibodies Lab315-huFc, Lab316-huFc, Lab320-huFc, Lab331-huFc, and Lab332-huFc are all capable of binding specifically to NUGC-4 cells.
(§4) The preparation of the assay cells and the antibodies to be tested and the assay were performed with reference to Example 3.4. […]

[4] = target: T2, monkey MUC17 fragment on …; experiment: FACS on FlpinCHO-Cyno(3597-3964)-D2 cells, MFI
[5] = target: T4, Human MUC17 ECD4131-his (His-tagged human MUC17 protein extracellular domain fusion protein) (human, UniProt Q685J3 4131-4393); experiment: ELISA on coated human MUC17 ECD4131-his, OD450
T4 construct: a truncation of the extracellular domain; also called human MUC17-his protein; human MUC17-His
Experimental: as §1

[6] = target: T4, Human MUC17 ECD4131-his (His-tagged …); experiment: ELISA on coated human MUC17 ECD4131-his, OD450; remark: listed apart in the source
Experimental: as §1

[7] = target: T3, human MUC17 on NUGC4 endogenous tumor …; experiment: FACS on NUGC4 cells, MFI; remark: listed apart in the source
Experimental: as §3, §4

[8] = target: T1, Cyno MUC17 ECD3577-his (His-tagged …); experiment: ELISA on coated monkey MUC17 ECD3577-His, OD450
Experimental: as §1, §2

[9] = target: T3, human MUC17 on NUGC4 endogenous tumor …; experiment: FACS on NUGC4 cells, MFI; remark: listed apart in the source
Experimental: as §3

[10] = target: T3, human MUC17 on NUGC4 endogenous tumor …; experiment: FACS on NUGC4 cells, MFI; remark: listed apart in the source
Experimental: as §3, §4

[11] = target: T4, Human MUC17 ECD4131-his (His-tagged …); experiment: SPR (Biacore 8K), antibody captured on Protein A
Experimental: The strength of antibody-antigen binding was assayed with a BIAcore 8K instrument using an Protein A capture method. First, Protein A was immobilized onto a CM4 chip (purchased from GE, BR-1005-34) using an amino coupling method. According to the instruction of the Amine Coupling Kit (purchased from GE, BR100633), NHS and EDC were mixed with HBS-EP+ pH 7.4 as a mobile phase to activate the chip for about 600 s; the Protein A was diluted to 50 µg/mL with 10 mM sodium acetate (pH 4.5) and injected for 600 s, and finally, the remaining activated sites were blocked with ethanolamine. Then, the affinity of the antibody for the antigen was assayed using a multi-cycle kinetic method; in each cycle, first, the antibody to be tested was captured using the Protein A chip, and then a single concentration of antigen protein was injected. The association and dissociation processes of the antibody with the antigen protein were recorded, and finally, the chip was regenerated using Glycine pH 1.5, wherein the mobile phase was HBS-EP+ (10 mM HEPES, 150 mM NaCl, 3 mM EDTA, 0.05% surfactant P20), the flow rate was […], the regeneration time was 30 s, and the assay temperature was 25° C. Finally, according to a 1:1 binding model, the data were analyzed, and the antibody-antigen binding kinetics parameters, including the association rate constant Ka, the dissociation rate constant Kd, the equilibrium dissociation constant KD, and the maximum binding signal Rmax, were fitted. The association rate (Ka), dissociation rate (Kd), and binding affinity (KD) of the recombinant antibodies Lab315-huFc, Lab316-huFc, Lab320-huFc, Lab331-huFc, and Lab332-huFc with the human MUC17 protein are shown in Table 5.

[12] = target: T3, human MUC17 on NUGC4 endogenous tumor …; experiment: FACS on NUGC4 cells, MFI; remark: listed apart in the source
Experimental: as §3

[13] = target: T4, Human MUC17 ECD4131-his (His-tagged …); experiment: ELISA on coated human MUC17 ECD4131-his, OD450; remark: listed apart in the source
[14] = target: T1, Cyno MUC17 ECD3577-his (His-tagged …); experiment: ELISA on coated monkey MUC17 ECD3577-His, OD450
Experimental: (§5) To assay the binding activity of the humanized antibodies with the monkey MUC17-his protein, the monkey MUC17-his protein was diluted with PBS to a final concentration of […] and subjected to ELISA assay and data analysis according to the method described in Example 3.3. The humanized antibodies SCR-7724, SCR-7782, SCR-7783, SCR-7784, and SCR-7785 have cross-binding activity with the monkey MUC17 protein, maintaining the binding ability of the recombinant antibody.

[15] = target: T4, Human MUC17 ECD4131-his (His-tagged …); experiment: ELISA on coated human MUC17 ECD4131-his, OD450; remark: listed apart in the source
Experimental: as §1

[16] = target: T3, human MUC17 on NUGC4 endogenous tumor …; experiment: FACS on NUGC4 cells, MFI; remark: listed apart in the source
Experimental: as §3, §4

[17] = target: T4, Human MUC17 ECD4131-his (His-tagged …); experiment: ELISA on coated human MUC17 ECD4131-his, OD450; remark: listed apart in the source
[18] = target: T1, Cyno MUC17 ECD3577-his (His-tagged …); experiment: ELISA on coated monkey MUC17 ECD3577-His, OD450
Experimental: as §5

[19] = target: T1, Cyno MUC17 ECD3577-his (His-tagged …); experiment: ELISA on coated monkey MUC17 ECD3577-His, OD450
Experimental: as §5

[20] = target: T4, Human MUC17 ECD4131-his (His-tagged …); experiment: ELISA on coated human MUC17 ECD4131-his, OD450; remark: listed apart in the source
Experimental: as §1

[21] = target: T4, Human MUC17 ECD4131-his (His-tagged …); experiment: ELISA on coated human MUC17 ECD4131-his, OD450; remark: listed apart in the source
Experimental: as §1

[22] = target: T1, Cyno MUC17 ECD3577-his (His-tagged …); experiment: ELISA on coated monkey MUC17 ECD3577-His, OD450
Experimental: as §5

| Binder | EC50 (read off the curve) [2] [nM] | EC50 (read off the curve) [3] [nM] | EC50 (read off the curve) [6] [nM] | EC50 (read off the curve) [8] [nM] | EC50 (read off the curve) [13] [nM] | EC50 (read off the curve) [14] [nM] | EC50 (read off the curve) [15] [nM] | EC50 (read off the curve) [18] [nM] | EC50 (read off the curve) [19] [nM] | EC50 (read off the curve) [20] [nM] | EC50 (read off the curve) [22] [nM] | other results |
| --- | --- | --- | --- | --- | --- | --- | --- | --- | --- | --- | --- | --- |
| Lab315 (VHH, also called Lab315 phage clone; SCR-7724) VHH: DVQLQASGGGAVQAGGSLRLSCAASGDITRRCMGWFRQAPGKEREGVAGISEDGITIYADSVKGRFTISKDNAKNSLYLQMNSLAPEDTANYSCAASILNRVGCRQLSYEYIYRGQGTQVTVSS |  |  |  |  |  |  |  |  |  |  |  | binding result [1]: binds |
| 2D11-hIgG1 (antibody, V domains shown, Control antibody from WO2019133961A1, expressed as human IgG1 + kappa; also called 21D11; MUC17 control antibody) VH: QVQLVESGGGVVQPGRSLRLSCAASGFTFSNHGMHWVRQAPGKCLEWVAGIWSDASNKYYAEAVKGRFTISRDTSKNTLYLQMNSLRAEDTAVYYCARATYTTGWSYFDYWGQGTLVTVSS VL: SYELTQSPSVSVSPGQTASITCSGDKLGDKYTSWYQQKPGQSPVLVIYHDRKRPSGIPERFSGSNSGNTATLTISGTQAMDEADYYCQAYDRSTAWVFGCGTKLTVLR | ~0.03 | ~0.05 | ~0.02 | ~0.01 | ~0.006 | ~0.04 | ~0.006 | ~0.01 | ~0.01 | ~0.04 | ~0.05 | EC50 (read off the curve) [4]: ~0.4 nM; EC50 (read off the curve) [5]: ~0.02 nM; EC50 (read off the curve) [7]: ~0.1 nM; EC50 (read off the curve) [9]: ~0.07 nM; EC50 (read off the curve) [10]: ~0.1 nM; Kd [11]: 7.12 nM; koff [11]: 0.000753 s⁻¹; kon [11]: 106000 M⁻¹ s⁻¹; EC50 (read off the curve) [12]: ~0.1 nM; EC50 (read off the curve) [16]: ~0.1 nM; EC50 (read off the curve) [17]: ~0.02 nM; EC50 (read off the curve) [21]: ~0.03 nM |
| 4C11-hIgG1 (antibody, V domains shown, also called MUC17 control antibody) VH: not shown VL: EIVLTQSPGTLSLSPGERATLSCRASQSVNRYLAWYQQKPGQAPRLLIYGASNRATGIPDRFTGSGSGTDFTLTISRLEPEDFAVYFCHHYGSSIFAFGCGTKVEIKR | ~0.04 | ~4 | ~0.05 | ~0.02 | ~0.01 | ~0.08 | ~0.01 | ~0.05 | ~0.02 | ~0.05 | ~0.08 |  |
